Bridge positions count the residues as written; N and C are the ends. Ends that are not written are not given here. COCH2 = acetyl group that carries the bridge

T1 sequence (P21802 22-377, change not shown): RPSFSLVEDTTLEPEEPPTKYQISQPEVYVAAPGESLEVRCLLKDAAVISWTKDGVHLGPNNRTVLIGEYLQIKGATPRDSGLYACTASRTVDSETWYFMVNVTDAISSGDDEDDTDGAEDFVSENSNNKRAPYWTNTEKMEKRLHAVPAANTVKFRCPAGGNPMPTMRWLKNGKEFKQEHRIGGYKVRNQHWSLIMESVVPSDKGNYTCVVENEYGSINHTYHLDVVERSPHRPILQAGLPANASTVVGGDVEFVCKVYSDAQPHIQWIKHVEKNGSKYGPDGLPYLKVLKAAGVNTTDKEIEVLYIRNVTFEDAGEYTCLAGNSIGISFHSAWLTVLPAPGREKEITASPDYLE

This assay has as its target T1, Recombinant Human FGFR2 alpha (IIIc) Fc Chimera Protein, CF (R&D systems, 712-FR-050) (human, UniProt P21802 22-377).
T1 construct: bought; not shown: Fc part of the chimera
Put plainly: ELISA on plate-bound FGFR2-Fc. An outline of the steps: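 Plate-immobilized FGFR2 alpha (IIIc)-Fc (5 ng/well) incubated with peptide 3 h at room temperature, then anti-Myc antibody 2 h and chemiluminescent ELISA substrate. Signal corrected by subtracting FGFR-free wells; binding affinity scored into categories from the dose-response.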
YCEENYLDPWQYQYFIYFK(COCH2)Y (thioether 2-19 (inferred)) [cyclic peptide SEQ ID NO: 243]: the “ELISA luminescence signal at 10 nmol/L peptide, relative to SEQ ID NO: 47 (=1)” value is ≥ 0.7 ratio.

In the case of YCEENYLDPEQYQIFIYFK(COCH2)Y (thioether 2-19 (inferred)) [cyclic peptide SEQ ID NO: 271], the “ELISA luminescence signal at 10 nmol/L peptide, relative to SEQ ID NO: 47 (=1)” value lay in the range of 0.1 to 0.5 ratio. Take YCEENYLDPNQYQYFIYFK(COCH2)Y (thioether 2-19 (inferred)) [cyclic peptide SEQ ID NO: 244]: the “ELISA luminescence signal at 10 nmol/L peptide, relative to SEQ ID NO: 47 (=1)” value is ≥ 0.7 ratio.

For the molecule YCEENYLDPEQYRYFIYFK(COCH2)Y (thioether 2-19 (inferred)) [cyclic peptide SEQ ID NO: 269], the “ELISA luminescence signal at 10 nmol/L peptide, relative to SEQ ID NO: 47 (=1)” value was ≥ 0.7 ratio. For the molecule YCEENYLDPEQHQYFIYFK(COCH2)Y (thioether 2-19 (inferred)) [cyclic peptide SEQ ID NO: 256], the “ELISA luminescence signal at 10 nmol/L peptide, relative to SEQ ID NO: 47 (=1)” value is ≥ 0.7 ratio.

Regarding YCEENYLDPEQYQYFGYFK(COCH2)Y (thioether 2-19 (inferred)) [cyclic peptide SEQ ID NO: 277], the “ELISA luminescence signal at 10 nmol/L peptide, relative to SEQ ID NO: 47 (=1)” value was in the range of 0.1 to 0.5 ratio. In the case of YCEENYLDPEQLQYFIYFK(COCH2)Y (thioether 2-19 (inferred)) [cyclic peptide SEQ ID NO: 252] it was 0.1 to 0.5 ratio. Regarding YCEENYLDPHQYQYFIYFK(COCH2)Y (thioether 2-19 (inferred)) [cyclic peptide SEQ ID NO: 250], the “ELISA luminescence signal at 10 nmol/L peptide, relative to SEQ ID NO: 47 (=1)” value is ≥ 0.7 ratio. Under YCEENYLDPEQYDYFIYFK(COCH2)Y (thioether 2-19 (inferred)) [cyclic peptide SEQ ID NO: 267] stands ≥ 0.7 ratio; under YCEENYLDPEQYQYYIYFK(COCH2)Y (thioether 2-19 (inferred)) [cyclic peptide SEQ ID NO: 276], 0.5 to 0.7 ratio. Consider YCEENYLDPEQYQHFIYFK(COCH2)Y (thioether 2-19 (inferred)) [cyclic peptide SEQ ID NO: 274], for which the “ELISA luminescence signal at 10 nmol/L peptide, relative to SEQ ID NO: 47 (=1)” value is 0.1 to 0.5 ratio. Under YCEENYLDPEQYEYFIYFK(COCH2)Y (thioether 2-19 (inferred)) [cyclic peptide SEQ ID NO: 268] stands ≥ 0.7 ratio; under YCEENYLDPEQYHYFIYFK(COCH2)Y (thioether 2-19 (inferred)) [cyclic peptide SEQ ID NO: 270], ≥ 0.7 ratio; under YCEENYLDPEQYQFFIYFK(COCH2)Y (thioether 2-19 (inferred)) [cyclic peptide SEQ ID NO: 272], ≥ 0.7 ratio. Under YCEENYLDPEQYIYFIYFK(COCH2)Y (thioether 2-19 (inferred)) [cyclic peptide SEQ ID NO: 259] stands ≥ 0.7 ratio; under YCEENYLDPEQYQYLIYFK(COCH2)Y (thioether 2-19 (inferred)) [cyclic peptide SEQ ID NO: 275], ≥ 0.7 ratio. Under YCEENYLDPEQYGYFIYFK(COCH2)Y (thioether 2-19 (inferred)) [cyclic peptide SEQ ID NO: 257] stands ≥ 0.7 ratio; under YCEENYLDPEHYQYFIYFK(COCH2)Y (thioether 2-19 (inferred)) [cyclic peptide SEQ ID NO: 251], 0.1 to 0.5 ratio.

For the molecule YCEENYLDPEQYQYFLYFK(COCH2)Y (thioether 2-19 (inferred)) [cyclic peptide SEQ ID NO: 278], the “ELISA luminescence signal at 10 nmol/L peptide, relative to SEQ ID NO: 47 (=1)” value is ≥ 0.7 ratio. Take YCEENYLDPEQYLYFIYFK(COCH2)Y (thioether 2-19 (inferred)) [cyclic peptide SEQ ID NO: 258]: the “ELISA luminescence signal at 10 nmol/L peptide, relative to SEQ ID NO: 47 (=1)” value is ≥ 0.7 ratio. Under YCEENYLDPEQYTYFIYFK(COCH2)Y (thioether 2-19 (inferred)) [cyclic peptide SEQ ID NO: 266] stands ≥ 0.7 ratio. In the case of YCEENYLDPSQYQYFIYFK(COCH2)Y (thioether 2-19 (inferred)) [cyclic peptide SEQ ID NO: 246] it was ≥ 0.7 ratio. On to YCEENYLDPQQYQYFIYFK(COCH2)Y (thioether 2-19 (inferred)) [cyclic peptide SEQ ID NO: 245], for which the “ELISA luminescence signal at 10 nmol/L peptide, relative to SEQ ID NO: 47 (=1)” value is ≥ 0.7 ratio. YCEENYLDPEQYVYFIYFK(COCH2)Y (thioether 2-19 (inferred)) [cyclic peptide SEQ ID NO: 260]: the “ELISA luminescence signal at 10 nmol/L peptide, relative to SEQ ID NO: 47 (=1)” value is ≥ 0.7 ratio. Under YCEENYLDPEQYQYFWYFK(COCH2)Y (thioether 2-19 (inferred)) [cyclic peptide SEQ ID NO: 282] stands ≥ 0.7 ratio; under YCEENYLDPEQYWYFIYFK(COCH2)Y (thioether 2-19 (inferred)) [cyclic peptide SEQ ID NO: 263], ≥ 0.7 ratio; under YCEENYLDPEQYQYFVYFK(COCH2)Y (thioether 2-19 (inferred)) [cyclic peptide SEQ ID NO: 279], ≥ 0.7 ratio. Under YCEENYLDPEQYQYFFYFK(COCH2)Y (thioether 2-19 (inferred)) [cyclic peptide SEQ ID NO: 280] stands ≥ 0.7 ratio. Under YCEENYLDPEQYNYFIYFK(COCH2)Y (thioether 2-19 (inferred)) [cyclic peptide SEQ ID NO: 264] stands ≥ 0.7 ratio; under YCEENYLDPEQYQYFNYFK(COCH2)Y (thioether 2-19 (inferred)) [cyclic peptide SEQ ID NO: 283], ≥ 0.7 ratio.

Take YCEENYLDPEQWQYFIYFK(COCH2)Y (thioether 2-19 (inferred)) [cyclic peptide SEQ ID NO: 255]: the “ELISA luminescence signal at 10 nmol/L peptide, relative to SEQ ID NO: 47 (=1)” value was ≥ 0.7 ratio. Consider YCEENYLDPEQFQYFIYFK(COCH2)Y (thioether 2-19 (inferred)) [cyclic peptide SEQ ID NO: 254], for which the “ELISA luminescence signal at 10 nmol/L peptide, relative to SEQ ID NO: 47 (=1)” value was ≥ 0.7 ratio.

On to YCEENYLDPEQYYYFIYFK(COCH2)Y (thioether 2-19 (inferred)) [cyclic peptide SEQ ID NO: 262], for which the “ELISA luminescence signal at 10 nmol/L peptide, relative to SEQ ID NO: 47 (=1)” value was ≥ 0.7 ratio. In the case of YCEENYLDPTQYQYFIYFK(COCH2)Y (thioether 2-19 (inferred)) [cyclic peptide SEQ ID NO: 247] it was ≥ 0.7 ratio. With YCEENYLDPRQYQYFIYFK(COCH2)Y (thioether 2-19 (inferred)) [cyclic peptide SEQ ID NO: 249], the “ELISA luminescence signal at 10 nmol/L peptide, relative to SEQ ID NO: 47 (=1)” value was ≥ 0.7 ratio.

Consider YCEENYLDPEQYSYFIYFK(COCH2)Y (thioether 2-19 (inferred)) [cyclic peptide SEQ ID NO: 265], for which the “ELISA luminescence signal at 10 nmol/L peptide, relative to SEQ ID NO: 47 (=1)” value was ≥ 0.7 ratio. In the case of YCEENYLDPEQYQYFQYFK(COCH2)Y (thioether 2-19 (inferred)) [cyclic peptide SEQ ID NO: 284] it was ≥ 0.7 ratio; in that of YCEENYLDPEQIQYFIYFK(COCH2)Y (thioether 2-19 (inferred)) [cyclic peptide SEQ ID NO: 253], 0.1 to 0.5 ratio; in that of YCEENYLDPDQYQYFIYFK(COCH2)Y (thioether 2-19 (inferred)) [cyclic peptide SEQ ID NO: 248], ≥ 0.7 ratio.

YCEENYLDPEQYQYFYYFK(COCH2)Y (thioether 2-19 (inferred)) [cyclic peptide SEQ ID NO: 281]: the “ELISA luminescence signal at 10 nmol/L peptide, relative to SEQ ID NO: 47 (=1)” value was ≥ 0.7 ratio.

YCEENYLDPEQYFYFIYFK(COCH2)Y (thioether 2-19 (inferred)) [cyclic peptide SEQ ID NO: 261]: the “ELISA luminescence signal at 10 nmol/L peptide, relative to SEQ ID NO: 47 (=1)” value was in the range of 0.5 to 0.7 ratio. In the case of YCEENYLDPEQYQNFIYFK(COCH2)Y (thioether 2-19 (inferred)) [cyclic peptide SEQ ID NO: 273] it was 0.1 to 0.5 ratio.

For the origin of these results see US20260008815A1, “CYCLIC PEPTIDE OR SALT THEREOF, AND USES THEREOF” (FUJIFILM Corporation, priority 2023, published 2026).
